Experimental data taken from US20210393689A1 (JUNO THERAPEUTICS, published 2021).

B1: GPRC5D-202 scFv clone (scFv, V domains shown)
VH: EVQLVESGGGLVKPGGSLRLSCAASGFTFSDYYMSWIRQAPGKGLEWVSYISSSGSTIYYADSVKGRFTISRDNAKNSLYLQMNSLRAEDTAVYYCARGYGKAYDQWGQGTLVTVSS
VL: QSVLTQPPSASGTPGQRVTISCSGSRSNVGGNYVFWYQQVPGATPKLLIYRSNQRPSGVPDRFAGSKSGSSASLAISGLRSEDEADYYCATWDDSLSGFVFGTGTKVTVLG
notes: Human scFv from a phage display library
B2: GPRC5D-204 scFv clone (scFv, V domains shown)
VH: EVQLVESGGGLVQPGGSLRLSCAASGFTFSNYAMSWVRQAPGKGLEWVSAISGSGNTYYADSVKGRFTISRDNSKNTLYLQMNSLRAEDTAVYYCARGSVRYTDIWGQGTLVTVSS
VL: NFMLTQPHSVSESPGKTVSISCTRTSGAIAGAYVQWFQQRPGSAPTTVIYDDNKRPSGVPDRFSGSIDKSSNSASLTISGLKTEDEADYYCQSYDYDSSNVLFGGGTKLTVLG
notes: as for B1
B3: GPRC5D-205 scFv clone (scFv, V domains shown)
VH: EVQLVESGGGLIQPGGSLRLSCAASGFTFSNYAMNWVRQAPGKGLEWVSTINGRGSSTIYADSVKGRFTISRDNSKNTLYLQMNSLRAEDTATYYCARYISRGLGDSWGQGTLVTV
VL: QSVVTQPPSMSAAPGQQVTISCSGGNSNIERNYVSWYLQLPGTAPKLVIFDNDRRPSGIPDRFSGSKSGTSATLGITGLQTGDEADYYCGTWDSSLRGWVFGGGTKLTVLG
notes: as for B1
B4: GPRC5D-202 VH/VL - long (anti-GPRC5D CAR) (protein)
chain: EVQLVESGGGLVKPGGSLRLSCAASGFTFSDYYMSWIRQAPGKGLEWVSYISSSGSTIYYADSVKGRFTISRDNAKNSLYLQMNSLRAEDTAVYYCARGYGKAYDQWGQGTLVTVSSGSRGGGGSGGGGSGGGGSLEMAQSVLTQPPSASGTPGQRVTISCSGSRSNVGGNYVFWYQQVPGATPKLLIYRSNQRPSGVPDRFAGSKSGSSASLAISGLRSEDEADYYCATWDDSLSGFVFGTGTKVTVLESKYGPPCPPCPAPPVAGPSVFLFPPKPKDTLMISRTPEVTCVVVDVSQEDPEVQFNWYVDGVEVHNAKTKPREEQFQSTYRVVSVLTVLHQDWLNGKEYKCKVSNKGLPSSIEKTISKAKGQPREPQVYTLPPSQEEMTKNQVSLTCLVKGFYPSDIAVEWESNGQPENNYKTTPPVLDSDGSFFLYSRLTVDKSRWQEGNVFSCSVMHEALHNHYTQKSLSLSLGKMFWVLVVVGGVLACYSLLVTVAFIIFWVKRGRKKLLYIFKQPFMRPVQTTQEEDGCSCRFPEEEEGGCELRVKFSRSADAPAYQQGQNQLYNELNLGRREEYDVLDKRRGRDPEMGGKPRRKNPQEGLYNELQKDKMAEAYSEIGMKGERRRGKGHDGLYQGLSTATKDTYDALHMQALPPR
B5: GPRC5D-203 VL/VH, long spacer CAR but lacking the signaling domains (other)
chain: SSELTQDPAVSVALGQTVRITCQGDSLRSYYASWYQQKPGQAPVLVIYGKNNRPSGIPDRFSGSSSGNTASLTITGAQAEDEADYYCNSRDSSGNPPVVFGGGTKLTVLGSRGGGGSGGGGSGGGGSLEMAQVQLVESGGGLVHPGGSLRLSCAASGFTFRSHSMNWVRQAPGKGLEWVSSISSDSTYTYYADSVKGRFTISRDNAKNSLYLQMNSLRAEDTAVYYCARSGGQWKYYDYWGQGTLVTVSSESKYGPPCPPCPAPPVAGPSVFLFPPKPKDTLMISRTPEVTCVVVDVSQEDPEVQFNWYVDGVEVHNAKTKPREEQFQSTYRVVSVLTVLHQDWLNGKEYKCKVSNKGLPSSIEKTISKAKGQPREPQVYTLPPSQEEMTKNQVSLTCLVKGFYPSDIAVEWESNGQPENNYKTTPPVLDSDGSFFLYSRLTVDKSRWQEGNVFSCSVMHEALHNHYTQKSLSLSLGKMFWVLVVVGGVLACYSLLVTVAFIIFWV
notes: Transiently expressed on HEK293 cells from a cell surface expression vector with cytoplasmic mCherry; also called non-signaling CAR
B6: GPRC5D-201 scFv clone (scFv, V domains shown)
VH: QMQLVQSGAEVKKPGASVKVSCKASGYTFNRYAITWVRQAPGQGLEWMGWISAYNGNSHYAQKLQGRVTMTTDTSTGTAYMELRRLRSDDTAVYYCARMAYDSWGQGTLVTVSS
VL: QSVLTQPASVSGSPGQSLTISCTGTSNDVGAYKYVSWYQQYPGKAPKLILYDVFKRPSGVSNRFSGSKSDNTASLTISGLQAEDEADYYCFSLTSSNTYVFGTGTKVTVLG
notes: as for B1
B7: GPRC5D-206 scFv clone (scFv, V domains shown)
VH: QVQLVQSGAEVKKPGASVKVSCKASGYTFTSYYMHWVRQAPGQGLEWMGIINPSGGSTRYAQKFQGRVTMTRDTSTSTVYMELSSLRSEDTAVYYCARGSSRWGGWTGDYWGQGTLVTVSS
VL: QSALTQPASVSGSPGQSITISCTGTSSDVGGYNFVSWYQQHPGKAPKVMIYDVSKRPSGISNRFSGSKSGNTASLTISGLQVEDEAEYYCSSYTSTRTVIFAGGTKVTVLG
notes: as for B1
B8: anti-GPRC5D-203 VL/VH scFv (SEQ ID NO: 8) fused to an mIgG2a Fc (Fc fusion, not shown: a dimerising Fc or GST; small tags and cut ends)
scFv: SSELTQDPAVSVALGQTVRITCQGDSLRSYYASWYQQKPGQAPVLVIYGKNNRPSGIPDRFSGSSSGNTASLTITGAQAEDEADYYCNSRDSSGNPPVVFGGGTKLTVLGSRGGGGSGGGGSGGGGSLEMAQVQLVESGGGLVHPGGSLRLSCAASGFTFRSHSMNWVRQAPGKGLEWVSSISSDSTYTYYADSVKGRFTISRDNAKNSLYLQMNSLRAEDTAVYYCARSGGQWKYYDYWGQGTLVTVSS
notes: also called scFv-Fc
B9: GPRC5D-200 scFv clone (scFv, V domains shown)
VH: EVQLVESGGAFVQPGGSLRLSCAASGFTFSSYAMTWVRQAPGKGLEWVSTISGRGRSTFYADSVKGRFTISRDNSKNTLYLQMNSLRAEDTAVYYCARYYHAGAFDLWGQGTLVTVSS
VL: QSVVTQPASVSGSPGQSITISCTGTSSDVGGYNYVSWYQQHPGKAPKLMIYDVSKRPSGVSNRFSGSKSGNTASLTISGLQAEDEADYYCSSYTSSSTLVFGGGTKLTVLG
notes: Human scFv from a B cell-derived phage display library
B10: GPRC5D-203 scFv clone (scFv, V domains shown)
VH: QVQLVESGGGLVHPGGSLRLSCAASGFTFRSHSMNWVRQAPGKGLEWVSSISSDSTYTYYADSVKGRFTISRDNAKNSLYLQMNSLRAEDTAVYYCARSGGQWKYYDYWGQGTLVTVSS
VL: SSELTQDPAVSVALGQTVRITCQGDSLRSYYASWYQQKPGQAPVLVIYGKNNRPSGIPDRFSGSSSGNTASLTITGAQAEDEADYYCNSRDSSGNPPVVFGGGTKLTVLG
notes: as for B1

Legend:
[1] = molecular target: T1, human G protein-coupled receptor class C group 5 member D (GPRC5D) (human, UniProt Q9NZD1 1-345); assay: ELISA-based epitope mapping on overlapping 15-mer peptides of the GPRC5D extracellular domains linked to scaffolds (linear, conformational, discontinuous)
T1 construct: also called hGPRC5D

[2] = molecular target: T1, human G protein-coupled receptor class …; assay: scFv phage clones from panning on hGPRC5D-aAPCs, binding to MM cell lines MM.1S and NCI-H929 (endogenous GPRC5D)
[3] = molecular target: cynomolgus GPRC5D (cynomolgus); assay: cell-based or functional assay
[4] = molecular target: T1, human G protein-coupled receptor class …; assay: cell-cell interaction by automated flow cytometry: HEK293 cells with the non-signaling GPRC5D-203 long spacer CAR (mCherry) against HEK293 cells each expressing one human GPCR (GFP); Z-score
Method: In parallel, the cDNA of individual receptors from a library of human GPCRs, in a vector expressing cytoplasmic GFP, was transiently expressed in the HEK293 cells. […] Binding was determined using an automated flow cytometric assay that detects cell-cell interaction.

EGFR = molecular target: T2, EGFR (human, UniProt P00533); assay: cell microarray of HEK293 cells expressing the indicated surface protein, probed with scFv-mIgG2a Fc
T2 construct: expressed on the surface of HEK293 cells in a cell microarray spot
Method: (§1) Cell microarrays were assessed for binding by automated fluorescent microscopy with a fluorescently labeled anti-mIgG2a secondary antibody.

CD86 = molecular target: T3, CD86 (human, UniProt P42081); assay: as above
T3 construct: expressed on the surface of HEK293 cells in a cell microarray spot; target of the positive control
T3 sequence (single chain, looked up): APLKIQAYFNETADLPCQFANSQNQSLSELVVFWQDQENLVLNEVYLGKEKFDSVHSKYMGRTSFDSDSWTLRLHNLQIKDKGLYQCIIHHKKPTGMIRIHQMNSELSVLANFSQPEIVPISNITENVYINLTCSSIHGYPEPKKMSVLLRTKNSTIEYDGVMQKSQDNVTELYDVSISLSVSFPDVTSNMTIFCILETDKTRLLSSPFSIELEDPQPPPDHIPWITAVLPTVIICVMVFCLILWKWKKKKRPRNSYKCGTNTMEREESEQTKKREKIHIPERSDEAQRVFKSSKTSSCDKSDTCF
Method: as §1

SLC38A2 = molecular target: T4, SLC38A2 (human, UniProt Q96QD8); assay: as above
T4 construct: expressed on the surface of HEK293 cells in a cell microarray spot
T4 sequence (single chain, looked up): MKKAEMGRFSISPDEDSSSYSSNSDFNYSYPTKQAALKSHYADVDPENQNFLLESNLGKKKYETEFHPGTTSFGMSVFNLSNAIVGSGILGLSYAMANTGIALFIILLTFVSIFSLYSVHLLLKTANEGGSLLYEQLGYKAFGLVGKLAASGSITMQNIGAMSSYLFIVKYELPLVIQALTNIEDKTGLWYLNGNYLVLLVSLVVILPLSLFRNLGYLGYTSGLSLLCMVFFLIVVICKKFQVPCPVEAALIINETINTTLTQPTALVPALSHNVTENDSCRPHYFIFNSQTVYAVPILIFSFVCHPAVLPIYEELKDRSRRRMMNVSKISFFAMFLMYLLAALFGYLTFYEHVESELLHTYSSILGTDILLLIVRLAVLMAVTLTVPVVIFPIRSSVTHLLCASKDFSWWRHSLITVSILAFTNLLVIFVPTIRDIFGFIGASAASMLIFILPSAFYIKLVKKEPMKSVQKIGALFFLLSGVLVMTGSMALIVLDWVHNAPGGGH
Method: as §1

T1 sequence (Q9NZD1 whole entry, the tested form may be a part): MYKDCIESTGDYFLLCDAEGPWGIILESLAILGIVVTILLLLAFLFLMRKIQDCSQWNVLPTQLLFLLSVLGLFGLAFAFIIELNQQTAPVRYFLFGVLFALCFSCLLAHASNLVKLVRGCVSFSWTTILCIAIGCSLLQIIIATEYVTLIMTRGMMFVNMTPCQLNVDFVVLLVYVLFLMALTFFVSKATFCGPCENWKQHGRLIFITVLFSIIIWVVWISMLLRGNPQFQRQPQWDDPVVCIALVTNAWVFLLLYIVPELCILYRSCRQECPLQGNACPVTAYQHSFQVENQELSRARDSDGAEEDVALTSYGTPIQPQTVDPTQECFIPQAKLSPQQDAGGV

Binder | binding result [1] | binding result [2] | other results
B1 | binds | – | –
B2 | – | binds | –
B3 | binds | – | –
B4 | – | – | interferon gamma release by CAR-transduced NHP T cells [3]: 10000 pg/mL
B5 | – | – | binding result [4]: binds
B6 | binds | – | –
B7 | – | binds | –
B8 | – | – | binding result (EGFR): no binding; binding result (CD86): no binding; binding result (SLC38A2): no binding
B9 | – | binds | –
B10 | binds | – | –
